Measurements as given in paper PMC4456219.

Assays:
[1] = molecular target: MBP-Vps24-2-ssrA (Saccharomyces cerevisiae) (UniProt P36095)
[2] = molecular target: mixed Vps4 hexamer of full-length Vps4^CF and Vps4^(CF 206C ΔMIT) (Saccharomyces cerevisiae) (UniProt P52917); assay: cross-linking

## ClpX (from UniProt P0A6H1 1-424) (enzyme)
[1]
  HDX-MS: unfolded proportion of the MBP peptide 347-360 at 10, 30 and 60 s: 30%

B1: Vps24-2^92C (I92C single cysteine mutant of Vps24-2) (protein)
chain: MDYIKKAIWGPDPKEQQRRIRSVLRKNGRNIEKSLRELTVLQNKTQQLIKKSAKKNDVRTVRLYAKELYQINKQYDRMYTSRAQLDSVRMKCDEAIRMNTLSNQMADSAGLMREVNSLVRLPQLRNTMIELEKELMKSGIISEMVDDTMESVGDVGEEMDEAVDEEVNKIVEQYTNEKFSQLQSTPQNLVSNAPIAETAMGIPEPIGAGSEFHGNPDDDLQARLNTLKKQT
modifications: Cys92 activated as a mixed disulfide with DTNB
[2]
  cross-linking efficiency relative to Vps24-2^136C: 60%
